From US20230002496A1 (STAIDSON BEIJING BIOPHARMACEUTICALS, published 2023)

T1: human GM-CSFRα, full length on cells (human, UniProt P15509 23-400)
T1 sequence: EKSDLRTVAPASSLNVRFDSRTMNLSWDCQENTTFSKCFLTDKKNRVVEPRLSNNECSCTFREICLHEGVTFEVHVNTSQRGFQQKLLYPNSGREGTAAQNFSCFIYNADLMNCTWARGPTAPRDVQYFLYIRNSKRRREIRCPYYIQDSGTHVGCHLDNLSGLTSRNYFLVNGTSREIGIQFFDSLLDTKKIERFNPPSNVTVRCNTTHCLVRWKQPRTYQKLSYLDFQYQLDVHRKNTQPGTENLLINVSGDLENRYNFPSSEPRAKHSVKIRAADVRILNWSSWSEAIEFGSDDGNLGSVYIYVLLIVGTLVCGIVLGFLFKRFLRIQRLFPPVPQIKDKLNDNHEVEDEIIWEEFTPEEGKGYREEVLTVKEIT


Biological target: T1, human GM-CSFRα, full length on cells
Assay: cell-based or functional assay

Row | IC50, TF-1 cell proliferation [µg/mL] | Binder
1 | 0.069 | E35-scFv LS30L (scFv, V domains shown) VH: QMQLVQSGAEVKKPGASVKVSCKVSGYTLTELSIHWVRQAPGKGLEWMGGFDPEDGETIYAQKFQGRVTMTGDTSTDTAYLELSSLRSEDTALYYCATGRYTSLATTYGFDYWGQGTLVTVSS VL: EIVMTQSPATLSLSPGERATLSCRASQSVLSYLAWYQQKPGQAPRLLIYGASSRATGIPDRFSGSGSGTDFTLTISRLEPEDFAVYYCQQYDNWPYTFGQGTKLEIK
2 | 0.078 | E35-scFv LS30A (scFv, V domains shown) VH: QMQLVQSGAEVKKPGASVKVSCKVSGYTLTELSIHWVRQAPGKGLEWMGGFDPEDGETIYAQKFQGRVTMTGDTSTDTAYLELSSLRSEDTALYYCATGRYTSLATTYGFDYWGQGTLVTVSS VL: EIVMTQSPATLSLSPGERATLSCRASQSVASYLAWYQQKPGQAPRLLIYGASSRATGIPDRFSGSGSGTDFTLTISRLEPEDFAVYYCQQYDNWPYTFGQGTKLEIK
3 | 0.092 | E35-scFv LS30T (scFv, V domains shown) VH: QMQLVQSGAEVKKPGASVKVSCKVSGYTLTELSIHWVRQAPGKGLEWMGGFDPEDGETIYAQKFQGRVTMTGDTSTDTAYLELSSLRSEDTALYYCATGRYTSLATTYGFDYWGQGTLVTVSS VL: EIVMTQSPATLSLSPGERATLSCRASQSVTSYLAWYQQKPGQAPRLLIYGASSRATGIPDRFSGSGSGTDFTLTISRLEPEDFAVYYCQQYDNWPYTFGQGTKLEIK
4 | 0.092 | E35-scFv LS30G (scFv, V domains shown) VH: QMQLVQSGAEVKKPGASVKVSCKVSGYTLTELSIHWVRQAPGKGLEWMGGFDPEDGETIYAQKFQGRVTMTGDTSTDTAYLELSSLRSEDTALYYCATGRYTSLATTYGFDYWGQGTLVTVSS VL: EIVMTQSPATLSLSPGERATLSCRASQSVGSYLAWYQQKPGQAPRLLIYGASSRATGIPDRFSGSGSGTDFTLTISRLEPEDFAVYYCQQYDNWPYTFGQGTKLEIK
5 | 0.083 | E35-scFv LS30K (scFv, V domains shown) VH: QMQLVQSGAEVKKPGASVKVSCKVSGYTLTELSIHWVRQAPGKGLEWMGGFDPEDGETIYAQKFQGRVTMTGDTSTDTAYLELSSLRSEDTALYYCATGRYTSLATTYGFDYWGQGTLVTVSS VL: EIVMTQSPATLSLSPGERATLSCRASQSVKSYLAWYQQKPGQAPRLLIYGASSRATGIPDRFSGSGSGTDFTLTISRLEPEDFAVYYCQQYDNWPYTFGQGTKLEIK
6 | 0.082 | E35-scFv LS30Y (scFv, V domains shown) VH: QMQLVQSGAEVKKPGASVKVSCKVSGYTLTELSIHWVRQAPGKGLEWMGGFDPEDGETIYAQKFQGRVTMTGDTSTDTAYLELSSLRSEDTALYYCATGRYTSLATTYGFDYWGQGTLVTVSS VL: EIVMTQSPATLSLSPGERATLSCRASQSVYSYLAWYQQKPGQAPRLLIYGASSRATGIPDRFSGSGSGTDFTLTISRLEPEDFAVYYCQQYDNWPYTFGQGTKLEIK
7 | 0.132 | E35-scFv LS30N (scFv, V domains shown) VH: QMQLVQSGAEVKKPGASVKVSCKVSGYTLTELSIHWVRQAPGKGLEWMGGFDPEDGETIYAQKFQGRVTMTGDTSTDTAYLELSSLRSEDTALYYCATGRYTSLATTYGFDYWGQGTLVTVSS VL: EIVMTQSPATLSLSPGERATLSCRASQSVNSYLAWYQQKPGQAPRLLIYGASSRATGIPDRFSGSGSGTDFTLTISRLEPEDFAVYYCQQYDNWPYTFGQGTKLEIK
8 | 0.07 | E35-scFv LY32L (scFv, V domains shown) VH: QMQLVQSGAEVKKPGASVKVSCKVSGYTLTELSIHWVRQAPGKGLEWMGGFDPEDGETIYAQKFQGRVTMTGDTSTDTAYLELSSLRSEDTALYYCATGRYTSLATTYGFDYWGQGTLVTVSS VL: EIVMTQSPATLSLSPGERATLSCRASQSVSSLLAWYQQKPGQAPRLLIYGASSRATGIPDRFSGSGSGTDFTLTISRLEPEDFAVYYCQQYDNWPYTFGQGTKLEIK
9 | 0.16 | E35-scFv LS30F (scFv, V domains shown) VH: QMQLVQSGAEVKKPGASVKVSCKVSGYTLTELSIHWVRQAPGKGLEWMGGFDPEDGETIYAQKFQGRVTMTGDTSTDTAYLELSSLRSEDTALYYCATGRYTSLATTYGFDYWGQGTLVTVSS VL: EIVMTQSPATLSLSPGERATLSCRASQSVFSYLAWYQQKPGQAPRLLIYGASSRATGIPDRFSGSGSGTDFTLTISRLEPEDFAVYYCQQYDNWPYTFGQGTKLEIK
10 | 0.221 | E35-scFv LS30C (scFv, V domains shown) VH: QMQLVQSGAEVKKPGASVKVSCKVSGYTLTELSIHWVRQAPGKGLEWMGGFDPEDGETIYAQKFQGRVTMTGDTSTDTAYLELSSLRSEDTALYYCATGRYTSLATTYGFDYWGQGTLVTVSS VL: EIVMTQSPATLSLSPGERATLSCRASQSVCSYLAWYQQKPGQAPRLLIYGASSRATGIPDRFSGSGSGTDFTLTISRLEPEDFAVYYCQQYDNWPYTFGQGTKLEIK
11 | 0.124 | E35-scFv LS30V (scFv, V domains shown) VH: QMQLVQSGAEVKKPGASVKVSCKVSGYTLTELSIHWVRQAPGKGLEWMGGFDPEDGETIYAQKFQGRVTMTGDTSTDTAYLELSSLRSEDTALYYCATGRYTSLATTYGFDYWGQGTLVTVSS VL: EIVMTQSPATLSLSPGERATLSCRASQSVVSYLAWYQQKPGQAPRLLIYGASSRATGIPDRFSGSGSGTDFTLTISRLEPEDFAVYYCQQYDNWPYTFGQGTKLEIK
12 | 0.073 | E35-scFv LS30M (scFv, V domains shown) VH: QMQLVQSGAEVKKPGASVKVSCKVSGYTLTELSIHWVRQAPGKGLEWMGGFDPEDGETIYAQKFQGRVTMTGDTSTDTAYLELSSLRSEDTALYYCATGRYTSLATTYGFDYWGQGTLVTVSS VL: EIVMTQSPATLSLSPGERATLSCRASQSVMSYLAWYQQKPGQAPRLLIYGASSRATGIPDRFSGSGSGTDFTLTISRLEPEDFAVYYCQQYDNWPYTFGQGTKLEIK
13 | 0.088 | E35-scFv LS30R (scFv, V domains shown) VH: QMQLVQSGAEVKKPGASVKVSCKVSGYTLTELSIHWVRQAPGKGLEWMGGFDPEDGETIYAQKFQGRVTMTGDTSTDTAYLELSSLRSEDTALYYCATGRYTSLATTYGFDYWGQGTLVTVSS VL: EIVMTQSPATLSLSPGERATLSCRASQSVRSYLAWYQQKPGQAPRLLIYGASSRATGIPDRFSGSGSGTDFTLTISRLEPEDFAVYYCQQYDNWPYTFGQGTKLEIK
14 | 0.1 | E35-scFv LS30E (scFv, V domains shown) VH: QMQLVQSGAEVKKPGASVKVSCKVSGYTLTELSIHWVRQAPGKGLEWMGGFDPEDGETIYAQKFQGRVTMTGDTSTDTAYLELSSLRSEDTALYYCATGRYTSLATTYGFDYWGQGTLVTVSS VL: EIVMTQSPATLSLSPGERATLSCRASQSVESYLAWYQQKPGQAPRLLIYGASSRATGIPDRFSGSGSGTDFTLTISRLEPEDFAVYYCQQYDNWPYTFGQGTKLEIK
15 | 0.071 | E35-scFv LS30W (scFv, V domains shown) VH: QMQLVQSGAEVKKPGASVKVSCKVSGYTLTELSIHWVRQAPGKGLEWMGGFDPEDGETIYAQKFQGRVTMTGDTSTDTAYLELSSLRSEDTALYYCATGRYTSLATTYGFDYWGQGTLVTVSS VL: EIVMTQSPATLSLSPGERATLSCRASQSVWSYLAWYQQKPGQAPRLLIYGASSRATGIPDRFSGSGSGTDFTLTISRLEPEDFAVYYCQQYDNWPYTFGQGTKLEIK
